Target: the molecule itself
Experiment: mass photometry; 50 nM ferritin at pH 2, measured at 1, 3 and 60 min, TwoMP mass photometer

B1: holo-ferritin (derived from equine spleen, F4503) (natural protein)
chain 1: MSSQIRQNYSTEVEAAVNRLVNLYLRASYTYLSLGFYFDRDDVALEGVCHFFRELAEEKREGAERLLKMQNQRGGRALFQDLQKPSQDEWGTTLDAMKAAIVLEKSLNQALLDLHALGSAQADPHLCDFLESHFLDEEVKLIKKMGDHLTNIQRLVGSQAGLGEYLFERLTLKHD
chain 2: MTTAFPSQVRQNYHQDSEAAINRQINLELHASYVYLSMSFYFDRDDVALKNFAKYFLHQSHEEREHAEKLMKLQNQRGGRIFLQDIKKPDQDDWENGLKAMECALHLEKNVNESLLELHKLATDKNDPHLCDFLETHYLNEQVKAIKELGDHVTNLRRMGAPESGMAEYLFDKHTLGECDES
notes: ferritin light (L) chain, equine spleen; ferritin heavy (H) chain, equine spleen; It carries a ferrihydrite iron core; Rows of m1 with itself describe the self-association of the subunits; also called equine spleen ferritin; source: bought: Sigma-Aldrich (F4503), derived from equine spleen
stoichiometry N: 18
